Data from patent publication US20070280947A1.

Key:
Human Tie-1 (human) = Human Tie-1 (human) (UniProt P35590); experiment: cell-based or functional assay
Human Tie-2 (human) = Human Tie-2 (human) (UniProt Q02763); experiment: cell-based or functional assay
UniProt Q02763, sequence (Q02763 23-1124 Q346P/T695I): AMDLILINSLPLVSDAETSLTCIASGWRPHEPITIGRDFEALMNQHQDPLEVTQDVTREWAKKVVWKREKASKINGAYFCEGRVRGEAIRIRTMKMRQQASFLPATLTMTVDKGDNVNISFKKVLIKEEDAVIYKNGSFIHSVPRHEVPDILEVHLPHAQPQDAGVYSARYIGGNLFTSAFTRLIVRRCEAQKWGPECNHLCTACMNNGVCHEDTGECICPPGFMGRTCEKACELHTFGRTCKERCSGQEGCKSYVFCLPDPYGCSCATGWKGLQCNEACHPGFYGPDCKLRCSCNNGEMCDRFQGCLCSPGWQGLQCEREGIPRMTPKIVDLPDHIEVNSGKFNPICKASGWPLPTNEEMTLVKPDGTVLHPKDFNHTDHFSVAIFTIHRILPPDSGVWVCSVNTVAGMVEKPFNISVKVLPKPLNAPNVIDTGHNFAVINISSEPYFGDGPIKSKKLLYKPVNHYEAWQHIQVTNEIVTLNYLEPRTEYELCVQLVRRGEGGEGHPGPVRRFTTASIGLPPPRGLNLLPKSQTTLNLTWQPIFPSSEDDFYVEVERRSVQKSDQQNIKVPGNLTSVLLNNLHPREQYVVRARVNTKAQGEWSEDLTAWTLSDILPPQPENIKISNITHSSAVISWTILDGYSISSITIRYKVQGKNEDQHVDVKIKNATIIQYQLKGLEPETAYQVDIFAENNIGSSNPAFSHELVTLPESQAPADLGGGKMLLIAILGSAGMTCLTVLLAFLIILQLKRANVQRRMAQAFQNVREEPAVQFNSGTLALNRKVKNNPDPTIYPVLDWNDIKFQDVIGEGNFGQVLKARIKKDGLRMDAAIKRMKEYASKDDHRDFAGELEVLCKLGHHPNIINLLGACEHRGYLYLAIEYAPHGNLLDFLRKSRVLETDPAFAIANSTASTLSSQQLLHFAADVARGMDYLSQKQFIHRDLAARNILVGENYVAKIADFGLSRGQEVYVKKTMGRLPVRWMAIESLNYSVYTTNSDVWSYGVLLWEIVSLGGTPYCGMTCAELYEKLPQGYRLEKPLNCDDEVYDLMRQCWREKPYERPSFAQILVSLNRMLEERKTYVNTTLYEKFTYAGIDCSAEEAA

UniProt P35590, sequence (P35590 25-1138): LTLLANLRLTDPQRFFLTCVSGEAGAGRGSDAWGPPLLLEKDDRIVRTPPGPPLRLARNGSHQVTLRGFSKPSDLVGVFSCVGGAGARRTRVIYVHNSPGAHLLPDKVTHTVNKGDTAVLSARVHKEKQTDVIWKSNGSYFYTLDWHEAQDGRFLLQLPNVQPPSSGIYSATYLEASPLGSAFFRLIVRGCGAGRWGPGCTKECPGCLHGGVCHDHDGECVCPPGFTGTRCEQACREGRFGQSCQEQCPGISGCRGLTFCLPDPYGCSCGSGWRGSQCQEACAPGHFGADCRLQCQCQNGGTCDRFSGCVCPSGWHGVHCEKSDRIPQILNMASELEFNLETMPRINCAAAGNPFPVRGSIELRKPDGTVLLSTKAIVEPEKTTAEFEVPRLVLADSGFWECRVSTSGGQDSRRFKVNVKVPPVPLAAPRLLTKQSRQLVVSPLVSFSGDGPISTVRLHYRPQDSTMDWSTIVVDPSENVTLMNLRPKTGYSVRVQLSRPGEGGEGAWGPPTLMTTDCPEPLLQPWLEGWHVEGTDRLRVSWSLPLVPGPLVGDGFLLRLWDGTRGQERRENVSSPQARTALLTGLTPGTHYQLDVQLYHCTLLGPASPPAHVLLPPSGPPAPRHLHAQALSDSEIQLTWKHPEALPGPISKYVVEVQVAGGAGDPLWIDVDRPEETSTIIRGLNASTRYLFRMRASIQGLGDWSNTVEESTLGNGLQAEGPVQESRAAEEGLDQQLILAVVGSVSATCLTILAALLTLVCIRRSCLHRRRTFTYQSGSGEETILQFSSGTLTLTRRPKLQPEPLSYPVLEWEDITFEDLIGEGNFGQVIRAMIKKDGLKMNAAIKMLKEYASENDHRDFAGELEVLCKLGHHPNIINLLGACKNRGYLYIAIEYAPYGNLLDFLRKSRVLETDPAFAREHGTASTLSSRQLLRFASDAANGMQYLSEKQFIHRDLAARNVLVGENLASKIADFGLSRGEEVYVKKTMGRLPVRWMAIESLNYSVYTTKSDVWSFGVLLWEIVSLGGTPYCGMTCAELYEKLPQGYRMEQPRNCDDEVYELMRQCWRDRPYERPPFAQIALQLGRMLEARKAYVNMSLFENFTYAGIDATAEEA

COMP-Ang-1 chimeric protein (from UniProt Q15389 256-498) (ligand)
COMP-Ang-1 concentration giving maximal receptor phosphorylation (Human Tie-1 (human)): 600 ng/mL
COMP-Ang-1 concentration giving significant receptor phosphorylation (Human Tie-1 (human)): 100 ng/mL
COMP-Ang-1 concentration giving maximal receptor phosphorylation (Human Tie-2 (human)): 600 ng/mL
COMP-Ang-1 concentration giving significant receptor phosphorylation (Human Tie-2 (human)): 100 ng/mL
